According to PMC7954794 (2021):
No end group written: not given here.

Tests used:
Experiment in all cases: FP
[1] = target: NCK2 full-length recombinant protein (mouse, WT, tag-free) (mouse, UniProt O55033 1-380)
[2] = target: NCK2 2|1|3 full-length recombinant protein (SH3-shuffled, tag-free) (mouse, UniProt O55033 114-170; O55033 60-113; O55033 2-59; O55033 171-380)
[3] = target: NCK2 2|3|1 full-length recombinant protein (SH3-shuffled, tag-free) (mouse, UniProt O55033 114-170; O55033 60-113; O55033 198-256; O55033 171-197; O55033 2-59; …)
Sequence of NCK2 2|3|1 full-length recombinant protein (SH3-shuffled, tag-free) (O55033 other isoform, or with tags, fused parts or gaps): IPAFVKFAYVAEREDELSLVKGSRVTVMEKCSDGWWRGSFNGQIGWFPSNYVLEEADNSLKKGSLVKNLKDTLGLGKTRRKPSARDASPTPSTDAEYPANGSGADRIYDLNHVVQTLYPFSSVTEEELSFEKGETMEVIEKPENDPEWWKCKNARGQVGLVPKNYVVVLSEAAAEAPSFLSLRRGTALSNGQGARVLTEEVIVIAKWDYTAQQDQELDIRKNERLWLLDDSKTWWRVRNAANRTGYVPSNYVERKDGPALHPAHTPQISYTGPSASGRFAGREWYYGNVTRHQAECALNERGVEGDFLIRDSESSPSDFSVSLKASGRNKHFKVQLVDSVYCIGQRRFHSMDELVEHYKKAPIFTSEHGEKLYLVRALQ

[4] = target: NCK2 3|1|2 full-length recombinant protein (SH3-shuffled, tag-free) (mouse, UniProt O55033 198-256; O55033 60-113; O55033 2-59; O55033 171-197; O55033 114-170; …)
Sequence of NCK2 3|1|2 full-length recombinant protein (SH3-shuffled, tag-free) (O55033 other isoform, or with tags, fused parts or gaps): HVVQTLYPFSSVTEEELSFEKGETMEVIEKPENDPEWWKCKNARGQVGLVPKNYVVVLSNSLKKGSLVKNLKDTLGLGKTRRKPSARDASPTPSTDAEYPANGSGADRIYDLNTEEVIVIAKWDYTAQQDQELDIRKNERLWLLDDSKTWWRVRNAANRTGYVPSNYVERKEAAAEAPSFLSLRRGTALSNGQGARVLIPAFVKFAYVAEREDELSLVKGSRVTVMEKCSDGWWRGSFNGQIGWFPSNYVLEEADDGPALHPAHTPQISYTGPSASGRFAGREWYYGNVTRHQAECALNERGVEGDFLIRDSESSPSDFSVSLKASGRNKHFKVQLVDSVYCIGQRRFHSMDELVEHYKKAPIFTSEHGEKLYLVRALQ

[5] = target: NCK2 1|3|2 full-length recombinant protein (SH3-shuffled, tag-free) (mouse, UniProt O55033 1-113; O55033 198-256; O55033 171-197; O55033 114-170; O55033 257-380)
Sequence of NCK2 1|3|2 full-length recombinant protein (SH3-shuffled, tag-free) (O55033 other isoform, or with tags, fused parts or gaps): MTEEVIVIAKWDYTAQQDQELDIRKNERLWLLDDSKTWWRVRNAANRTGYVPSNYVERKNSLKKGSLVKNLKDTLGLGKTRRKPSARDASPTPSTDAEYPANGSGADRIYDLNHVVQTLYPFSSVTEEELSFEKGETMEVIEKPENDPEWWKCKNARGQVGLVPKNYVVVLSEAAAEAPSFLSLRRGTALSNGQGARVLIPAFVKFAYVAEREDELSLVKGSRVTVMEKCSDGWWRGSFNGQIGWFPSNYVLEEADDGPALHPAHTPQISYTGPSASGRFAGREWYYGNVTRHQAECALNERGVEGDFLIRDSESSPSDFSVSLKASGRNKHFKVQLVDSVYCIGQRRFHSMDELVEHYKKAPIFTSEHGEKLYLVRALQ

[6] = target: NCK2 3|2|1 full-length recombinant protein (SH3-shuffled, tag-free) (mouse, UniProt O55033 198-256; O55033 60-197; O55033 2-59; O55033 257-380)
Sequence of NCK2 3|2|1 full-length recombinant protein (SH3-shuffled, tag-free) (O55033 other isoform, or with tags, fused parts or gaps): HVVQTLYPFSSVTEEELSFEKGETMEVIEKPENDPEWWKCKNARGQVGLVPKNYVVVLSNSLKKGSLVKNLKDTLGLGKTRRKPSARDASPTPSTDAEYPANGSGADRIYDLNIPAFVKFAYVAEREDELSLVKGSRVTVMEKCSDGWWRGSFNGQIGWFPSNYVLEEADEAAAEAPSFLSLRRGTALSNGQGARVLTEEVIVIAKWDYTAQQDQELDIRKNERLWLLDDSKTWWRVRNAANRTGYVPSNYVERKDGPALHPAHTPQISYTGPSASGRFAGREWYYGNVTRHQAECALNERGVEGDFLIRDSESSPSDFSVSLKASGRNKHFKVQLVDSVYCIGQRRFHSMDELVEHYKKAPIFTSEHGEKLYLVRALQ

Sequence of NCK2 full-length recombinant protein (mouse, WT, tag-free) (O55033 whole entry): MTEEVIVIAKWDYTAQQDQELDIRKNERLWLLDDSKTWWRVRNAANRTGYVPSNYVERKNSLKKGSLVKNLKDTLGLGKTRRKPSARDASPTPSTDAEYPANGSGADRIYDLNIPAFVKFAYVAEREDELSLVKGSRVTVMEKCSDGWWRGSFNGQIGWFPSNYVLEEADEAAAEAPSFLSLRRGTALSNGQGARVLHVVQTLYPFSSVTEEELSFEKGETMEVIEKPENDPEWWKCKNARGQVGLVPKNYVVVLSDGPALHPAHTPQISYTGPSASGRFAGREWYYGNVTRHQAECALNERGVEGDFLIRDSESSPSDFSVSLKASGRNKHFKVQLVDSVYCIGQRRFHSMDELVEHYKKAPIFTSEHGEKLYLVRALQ
Sequence of NCK2 2|1|3 full-length recombinant protein (SH3-shuffled, tag-free) (O55033 other isoform, or with tags, fused parts or gaps): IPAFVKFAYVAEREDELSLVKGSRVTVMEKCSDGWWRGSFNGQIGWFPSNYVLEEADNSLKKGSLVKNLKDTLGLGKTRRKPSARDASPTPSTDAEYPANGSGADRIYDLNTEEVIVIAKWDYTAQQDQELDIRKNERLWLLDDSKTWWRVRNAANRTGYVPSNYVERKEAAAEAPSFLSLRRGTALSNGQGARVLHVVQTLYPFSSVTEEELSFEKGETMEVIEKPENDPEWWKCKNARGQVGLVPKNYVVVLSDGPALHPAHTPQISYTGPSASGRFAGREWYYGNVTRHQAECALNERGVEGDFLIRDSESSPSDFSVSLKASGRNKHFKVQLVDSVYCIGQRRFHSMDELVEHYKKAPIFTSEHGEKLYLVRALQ

Kd [1] | Kd [2] | Kd [3] | Kd [4] | Kd [5] | Kd [6] | Binder
12.7 µM | 18 µM | 26.3 µM | 16.2 µM | 13.5 µM | – | RGQNKERPPPVPNPDY (also: fluorescein isothiocyanate-conjugated (position not given here)) [Cd3ε peptide (RGQNKERPPPVPNPDY), fluorescein isothiocyanate-conjugated]
36 µM | – | 21.6 µM | 54.8 µM | 77.9 µM | 31.6 µM | DIQDKPPAPPMRNTST (also: fluorescein isothiocyanate-conjugated (position not given here)) [PAK1 peptide (DIQDKPPAPPMRNTST), fluorescein isothiocyanate-conjugated]
